B1: unnamed (protein)
chain: MAVMTPRRERSSLLSRALQVTAAAATALVTAVSLAAPAHAANPYERGPNPTDALLEASSGPFSVSEENVSRLSASGFGGGTIYYPRENNTYGAVAISPGYTGTEASIAWLGERIASHGFVVITIDTITTLDQPDSRAEQLNAALNHMINRASSTVRSRIDSSRLAVMGHSMGGGGTLRLASQRPDLKAAIPLTPWHLNKNWSSVTVPTLIIGADLDTIAPVATHAKPFYNSLPSSISKAYLELDGATHFAPNIPNKIIGKYSVAWLKRFVDNDTRYTQFLCPGPRDGLFGEVEEYRSTCPF
B2: unnamed (protein)
chain: MPPHAARPGPAQNRRGRAMAVITPRRERSSLLSRALRFTAAAATALVTAVSLAAPAHAANPYERGPNPTDALLEARSGPFSVSEERASRFGADGFGGGTIYYPRENNTYGAVAISPGYTGTQASVAWLGERIASHGFVVITIDTNTTLDQPDSRARQLNAALDYMINDASSAVRSRIDSSRLAVMGHSMGGGGTLRLASQRPDLKAAIPLTPWHLNKNWSSVRVPTLIIGADLDTIAPVLTHARPFYNSLPTSISKAYLELDGATHFAPNIPNKIIGKYSVAWLKRFVDNDTRYTQFLCPGPRDGLFGEVEEYRSTCPF

What was measured:
pNPB [1] = test: Proxy for plastic degradation [Relative activity]
pNPB [2] = test: Proxy for plastic degradation [kcat/Km (catalytic efficiency)] (µM⁻¹s⁻¹); details: pH 8
pNPB [3] = test: Proxy for plastic degradation [p-nitrophenol (pNP) release] (% relative activity); details: pH 8

| Protein | Proxy for plastic degradation (pNPB [1]; pH 5) [%] | Proxy for plastic degradation (pNPB [1]; pH 6) [%] | Proxy for plastic degradation (pNPB [1]; pH 6.8) [%] | Proxy for plastic degradation (pNPB [1]; pH 7.5) [%] | Proxy for plastic degradation (pNPB [1]; pH 9) [%] | Proxy for plastic degradation (pNPB [2]) | Proxy for plastic degradation (pNPB [3]; 25 °C) | Proxy for plastic degradation (pNPB [3]; 30 °C) | Proxy for plastic degradation (pNPB [3]; 37 °C) | Proxy for plastic degradation (pNPB [3]; 40 °C) | Proxy for plastic degradation (pNPB [3]; 45 °C) | Proxy for plastic degradation (pNPB [3]; 50 °C) | Proxy for plastic degradation (pNPB [3]; 55 °C) | Proxy for plastic degradation (pNPB [3]; 60 °C) | Proxy for plastic degradation (pNPB [3]; 70 °C) | Proxy for plastic degradation (pNPB [3]; 80 °C) | Proxy for plastic degradation (pNPB [3]; 15 h) | Proxy for plastic degradation (pNPB [3]; 30 h) | Proxy for plastic degradation (pNPB [3]; 40 h) | also measured |
| --- | --- | --- | --- | --- | --- | --- | --- | --- | --- | --- | --- | --- | --- | --- | --- | --- | --- | --- | --- | --- |
| B1 | 30 | 59 | 75 | 92 | 75 | 2.84 | 29 | 35.5 | 51 | 68.5 | 80.5 | 93.5 | 100 | 91.5 | 79 | 67 | 93 | 47 | 38 | Proxy for plastic degradation (pNPB [1]; pH 8): 100%; Proxy for plastic degradation (pNPB [1]; pH 8, 25 °C): 29%; Proxy for plastic degradation (pNPB [1]; pH 8, 30 °C): 35%; Proxy for plastic degradation (pNPB [1]; pH 8, 37 °C): 50%; Proxy for plastic degradation (pNPB [1]; pH 8, 40 °C): 69%; Proxy for plastic degradation (pNPB [1]; pH 8, 45 °C): 80%; Proxy for plastic degradation (pNPB [1]; pH 8, 50 °C): 93%; Proxy for plastic degradation (pNPB [1]; pH 8, 55 °C): 100%; Proxy for plastic degradation (pNPB [1]; pH 8, 60 °C): 92%; Proxy for plastic degradation (pNPB [1]; pH 8, 70 °C): 78%; Proxy for plastic degradation (pNPB [1]; pH 8, 80 °C): 65% |
| B2 | 35 | 60 | 75 | 90 | 75 | 1.35 | 31 | 37.5 | 45 | 70.5 | 75 | 95.5 | 100 | 93.5 | 74 | 67.5 | 98 | 50 | 40 | Proxy for plastic degradation (pNPB [3]; 0 h): 100 |

Reference: the PETadex activity labels (doi:10.1007/s12010-013-0219-x)
